Assay results taken from patent publication US20120039908A1 (TRANSTECH PHARMA, published 2012).
Where “and” joins values, the source holds several entries; their conditions need not be identical. Equal values may be shown once. Blank lines part the entries; values can stand above or below the binder they belong to.

How the values were obtained:
[1] = biological target: T1, S100b protein (Cat. No. 559290, Calbiochem); assay: ELISA, S100b coated on plate; reference S1 control
T1 construct: Coated on the ELISA plate at 20 µg/mL in TBS pH 8.0 with 5 mM CaCl2; also called RAGE ligand S100b
T1 sequence (P04271 2-92, species assumed, looked up): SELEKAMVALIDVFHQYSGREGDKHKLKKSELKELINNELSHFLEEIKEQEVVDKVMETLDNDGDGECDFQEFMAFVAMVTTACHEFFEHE
Protocol: (§1) S100b binding ELISA: An ELISA assay plate was coated with 100 μL/well of 20 μg/mL S100b protein (Cat. No. 559290, Calbiochem, Gibbstown, N.J.) in coating buffer (Tris buffered saline [TBS], pH8.0, with 5 mM CaCl₂) overnight at 4° C. The plate was then washed three times with blocking buffer (TBS pH8.0, with 5 mM CaCl₂, 0.05% Tween20, and 1% bovine serum albumin [BSA]), and blocked with the blocking buffer for 1-1.5 hr. sRAGE-Ig fusion samples were prepared in a separate dilution plate, the highest concentration was 10 μg/mL in blocking buffer, with 1:4 serial dilution in blocking buffer down to 2.4 ng/mL. After blocking, the assay plate was washed with the blocking buffer and 100 μL of the samples were transferred from the dilution plate to the assay plate. The assay plate was incubated at room temperature for 2.5 hr. The assay plate was then washed three times with the blocking buffer, with 1 min soaking time between the washes. The horseradish peroxidase conjugated goat anti-human IgG (Cat. No. A2290, Sigma, St. Louis, Mo.) was added to the plate with 100 μL/well at 1:2500 dilution in the blocking buffer. The plate was incubated for 1 hr at room temperature. The assay plate was then washed three times with the blocking buffer again, and 100 μL 3,3′,5,5′-tetramethylbenzidine (TMB; Cat. No. 34022, Pierce, Rockford, Ill.) was added to each well and the plate was incubated for 8 minutes at room temperature. 100 μL of 1M H₂SO₄ was then added to each well, the plate was shaken and read at 450 nm on a microplate reader.

[2] = biological target: T2, Abeta (human Aβ peptide; Aβ1-40 or Aβ1-28, Table 5 does not say which) (human, UniProt P05067 672-711); assay: ELISA, Abeta peptide coated on plate; reference S1 control
T2 construct: Coated on the ELISA plate at 20 µg/mL in 1% NH4OH; also called A-beta peptide; amyloid beta
Protocol: (§2) Assay for A3 peptide binding activities: Briefly, two human Aβ peptides were tested: Aβ1-40 (Catalogue# A-1153-2, Rpeptide), and Aβ1-28 (Catalogue#24232, AnaSpec). The plates were coated by 20 μg/mL peptide in 1% NH₄OH overnight at 4° C. The plate was then washed with blocking buffer (TBS pH8.0, 0.05% Tween20, and 1% BSA) and blocked for 1 hr at room temperature. All the other steps were performed essentially as described previously herein for S100b binding assay, supra.

[3] = biological target: T1, S100b protein (Cat. No. 559290, …); assay: ELISA, S100b coated on plate, sRAGE-Ig titrated, anti-human IgG-HRP
Protocol: as §1

[4] = biological target: T2, Abeta (human Aβ peptide; Aβ1-40 or …); assay: ELISA, Abeta peptide coated on plate, sRAGE-Ig titrated, anti-human IgG-HRP
Protocol: as §2

[5] = biological target: T1, S100b protein (Cat. No. 559290, …); assay: ELISA, S100b coated on plate; reference S1
Protocol: as §1, with “The assay plate was then washed three times with the blocking buffer again, and 100 μL 3,3′,5,5′-tetramethylbenzidine (TMB; Cat. No. 34022, Pierce, Rockford, Ill.) was added to each well and the plate was incubated for 8 minutes at room temperature.” left out

[6] = biological target: T1, S100b protein (Cat. No. 559290, …); assay: ELISA, S100b coated on plate; reference S1F1
Protocol: as §1, with “The assay plate was then washed three times with the blocking buffer again, and 100 μL 3,3′,5,5′-tetramethylbenzidine (TMB; Cat. No. 34022, Pierce, Rockford, Ill.) was added to each well and the plate was incubated for 8 minutes at room temperature.” left out

[7] = biological target: T2, Abeta (human Aβ peptide; Aβ1-40 or …); assay: ELISA, Abeta peptide coated on plate; reference S1
Protocol: as §2

[8] = biological target: T2, Abeta (human Aβ peptide; Aβ1-40 or …); assay: ELISA, Abeta peptide coated on plate; reference S2F1
Protocol: as §2

T2 sequence (P05067 672-711 limits assumed): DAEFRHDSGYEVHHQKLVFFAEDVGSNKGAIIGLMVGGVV

B3: sRAGE-Ig fusion protein, sample 1 fraction 2 (S1F2), 2-glycan species from untreated CHO cells (Fc fusion)
chain: QNITARIGEPLVLKCKGAPKKPPQRLEWKLNTGRTEAWKVLSPQGGGPWDSVARVLPNGSLFLPAVGIQDEGIFRCQAMNRNGKETKSNYRVRVYQIPGKPEIVDSASELTAGVPNKVGTCVSEGSYPAGTLSWHLDGKPLVPNEKGVSVKEQTRRHPETGLFTLQSELMVTPAPGGDPRPTFSCSFSPGLPRHRALRTAPIQPRVWEPVPLEEVQLVVEPEGGAVAPPSVFLFPPKPKDTLMISRTPEVTCVVVDVSHEDPEVKFNWYVDGVEVHNAKTKPREEQYNSTYRVVSVLTVLHQDWLNGKEYKCKVSNKALPAPIEKTISKAKGQPREPQVYTLPPSRDELTKNQVSLTCLVKGFYPSDIAVEWESNGQPENNYKTTPPVLDSDGPFFLYSKLTVDKSRWQQGNVFSCSVMHEALHNHYTQKSLSLSPGK
modifications: pE1; two of the three N-linked sites (N2, N58, N288) occupied; the filing cannot tell which
notes: RP-HPLC fraction; also called 2-Glycan only
IC50 [3]: 0.104 µg/mL and 1.04 nM
IC50 [4]: 0.73 nM

B4: sRAGE-Ig fusion protein, sample S2 (from CHO cells treated with tunicamycin, unfractionated) (Fc fusion)
chain: B3 chain
modifications: pE1; N-linked sites N2, N58, N288: mixture 3-Glycan = 42%, 2-Glycan = 16%, 0-Glycan = 31%
notes: Cells treated with 5 µg/mL tunicamycin for 3 days; also called S2 = TMYCN (treated with tunicamycin)
fold binding relative to sample S1 [5]: ~3 fold
fold binding relative to sample S1 [7]: ~1.5 fold
Relative binding compared to control [1]: 295%
Relative binding compared to control [2]: 151%
IC50 [3]: 0.061 µg/mL and 0.61 nM
IC50 [4]: 0.82 nM

B5: sRAGE-Ig fusion protein, sample 2 fraction 1 (S2F1), 3-glycan species from tunicamycin treated CHO cells (Fc fusion)
chain: B3 chain
modifications: pE1; N-linked glycans at all three sites N2, N58, N288 (3-glycan only)
notes: RP-HPLC fraction; also called 3-Glycan only
IC50 [3]: 0.89 µg/mL and 8.9 nM
IC50 [4]: 2.51 nM

B6: sRAGE-Ig fusion protein, sample 2 fraction 2 (S2F2), 2-glycan species from tunicamycin treated CHO cells (Fc fusion)
chain: B3 chain
modifications: pE1; two of the three N-linked sites (N2, N58, N288) occupied; the filing cannot tell which
notes: RP-HPLC fraction; also called 2-Glycan only; doubly occupied variant
IC50 [3]: 0.1 µg/mL and 1 nM
IC50 [4]: 0.52 nM

The remaining binders from weak to strong by IC50 [4], led by results:

Relative binding compared to control [1]: 100%
Relative binding compared to control [2]: 100%
IC50 [3]: 0.18 µg/mL and 1.8 nM
IC50 [4]: 1.24 nM
B1: sRAGE-Ig fusion protein, sample S1 (control, from untreated CHO cells, unfractionated) (Fc fusion)
chain: B3 chain
modifications: N-terminal Gln1 cyclized to pyroglutamic acid (pE1); N-linked glycan sites N2, N58, N288 (numbering without the signal): mixture 3-Glycan = 67%, 2-Glycan = 22%
notes: Mostly a non-covalent homodimer (about 78%), with about 19% heterodimer with a furin-cleaved Fc fragment; C-terminal Lys438 partly clipped; also called S1 = control (untreated); sRAGE-Fc

IC50 [3]: 0.39 µg/mL and 3.9 nM
IC50 [4]: 1.21 nM
B7: sRAGE-Ig fusion protein, sample 1 fraction 1 (S1F1), 3-glycan species from untreated CHO cells (Fc fusion)
chain: B3 chain
modifications: pE1; N-linked glycans at all three sites N2, N58, N288 (3-glycan only)
notes: RP-HPLC fraction exchanged into a stabilizing buffer before the ELISA; also called 3-Glycan only; fully occupied 3-glycan version

fold increase in binding compared to S1 control [5]: 5 fold
fold increase in binding compared to 3-glycan S1F1 [6]: 10 fold
fold increase in binding compared to S1 control [7]: 3 fold
fold increase in binding compared to 3-glycan S2F1 [8]: 6 fold
Relative binding compared to control [1]: 529%
Relative binding compared to control [2]: 295%
IC50 [3]: 0.034 µg/mL and 0.34 nM
IC50 [4]: 0.42 nM
B2: sRAGE-Ig fusion protein, sample 2 fraction 3 (S2F3), 0-glycan (aglycosylated) species from tunicamycin treated CHO cells (Fc fusion)
chain: B3 chain
modifications: pyroglutamic acid (pE) at the N-terminus; no glycan at N2, N58 or N288; mixture with or without C-terminal lysine
notes: RP-HPLC fraction; its mass agrees with the theoretical mass of the unglycosylated fusion protein; also called 0-Glycan only; aglycosylated variant
